# Experimental data taken from article PMC5932227.
# Biological target: cynomolgus OX40, native, on activated cynomolgus CD4 T cells (cynomolgus (endogenous in primary CD4 T cells))
# Assay: flow cytometry on cells
substance,measurement,value
"MEDI6383, human OX40 ligand IgG4P Fc fusion protein",Kd,0.024 nM
